US20210401786A1, “COMPOSITION FOR TREATING BURN WOUNDS” (priority 2020, published 2021)

Test system: human non-healing burn wounds
Assay: Wound healing in patients with non-healing burn wounds
Format: in vivo
Settings: for Wound healing time (X +/− S): patients, completely healed cases
Method: In this application, medical records of 430 patients, including 368 male and 60 female, aged from 1 to 70 years old, with a clinical diagnosis of at least one non-healing burn wound were collected. The burn injury includes 150 cases of hydrothermal burns, 167 cases of flame burns, 84 cases of electric burns, and 29 cases of chemical burns. […] The non-healing wounds of 430 patients were treated with the composition of Example 3 of the present invention (49 cases), surgery (197 cases), and conventional treatment (rhEGF therapy) (184 cases). There were no statistically significant differences observed among the groups in terms of gender, age, and wound area (p>0.05) (The comparison results of the differences in terms of various factors are shown in Tables 5, 6 and 7).
Among the 49 patients in the present invention, the wound was completely healed in 31 cases (63.27%), effectively healed in 15 cases (30.61%), improved in 2 cases (4.08%), and not healed in 1 case (2.04%). Among the 197 patients in the surgery group, the wound was completely healed in 152 cases (77.15%), effectively healed in 39 cases (19.80%), improved in 6 cases (3.05%), and not healed in 0 case (0%). Among the 184 patients in the conventional treatment group, the wound was completely healed in 96 cases (52.17%), effectively healed in 56 cases (30.43%), improved in 24 cases (13.05%), and not healed in 8 cases (4.35%). The effect of the present invention on wound healing is analyzed by the total effective rate after receiving different treatments. The total effective rate=(the number of completely healed cases+the number of effectively healed cases)/total number of cases.
The wound healing time of the present invention group, surgery group and conventional dressing group is 19.87±9.10 days, 22.71±11.77 days and 36.71±10.60 days, respectively. […] There is no significant difference in wound healing time between the present invention group and the surgery group (P>0.05).

[1] = patients with non-healing burn wounds
[2] = patients with non-healing burn wounds, listed as conventional treatment

B1: Conventional treatment: conventional treatment (rhEGF therapy) of patients' non-healing burn wounds (protein, UniProt P01133 23-1207, looked up)
Pro-epidermal growth factor: PQHWSCPEGTLAGNGNSTCVGPAPFLIFSHGNSIFRIDTEGTNYEQLVVDAGVSVIMDFHYNEKRIYWVDLERQLLQRVFLNGSRQERVCNIEKNVSGMAINWINEEVIWSNQQEGIITVTDMKGNNSHILLSALKYPANVAVDPVERFIFWSSEVAGSLYRADLDGVGVKALLETSEKITAVSLDVLDKRLFWIQYNREGSNSLICSCDYDGGSVHISKHPTQHNLFAMSLFGDRIFYSTWKMKTIWIANKHTGKDMVRINLHSSFVPLGELKVVHPLAQPKAEDDTWEPEQKLCKLRKGNCSSTVCGQDLQSHLCMCAEGYALSRDRKYCEDVNECAFWNHGCTLGCKNTPGSYYCTCPVGFVLLPDGKRCHQLVSCPRNVSECSHDCVLTSEGPLCFCPEGSVLERDGKTCSGCSSPDNGGCSQLCVPLSPVSWECDCFPGYDLQLDEKSCAASGPQPFLLFANSQDIRHMHFDGTDYGTLLSQQMGMVYALDHDPVENKIYFAHTALKWIERANMDGSQRERLIEEGVDVPEGLAVDWIGRRFYWTDRGKSLIGRSDLNGKRSKIITKENISQPRGIAVHPMAKRLFWTDTGINPRIESSSLQGLGRLVIASSDLIWPSGITIDFLTDKLYWCDAKQSVIEMANLDGSKRRRLTQNDVGHPFAVAVFEDYVWFSDWAMPSVMRVNKRTGKDRVRLQGSMLKPSSLVVVHPLAKPGADPCLYQNGGCEHICKKRLGTAWCSCREGFMKASDGKTCLALDGHQLLAGGEVDLKNQVTPLDILSKTRVSEDNITESQHMLVAEIMVSDQDDCAPVGCSMYARCISEGEDATCQCLKGFAGDGKLCSDIDECEMGVPVCPPASSKCINTEGGYVCRCSEGYQGDGIHCLDIDECQLGEHSCGENASCTNTEGGYTCMCAGRLSEPGLICPDSTPPPHLREDDHHYSVRNSDSECPLSHDGYCLHDGVCMYIEALDKYACNCVVGYIGERCQYRDLKWWELRHAGHGQQQKVIVVAVCVVVLVMLLLLSLWGAHYYRTQKLLSKNPKNPYEESSRDVRSRRPADTEDGMSSCPQPWFVVIKEHQDLKNGGQPVAGEDGQAADGSMQPTSWRQEPQLCGMGTEQGCWIPVSSDKGSCPQVMERSFHMPSYGTQTLEGGVEKPHSLLSANPLWQQRALDPPHQMELTQ
modifications: Pro-epidermal growth factor
notes: conventional treatment (rhEGF therapy) of patients' non-healing burn wounds
Total effective rate (%) ((completely healed + effectively healed cases)/total number of cases): 82.61% ^ | Completely healed case (%) [1]: (52.17%) | Completely healed case, number [1]: 96 cases | Effectively healed case (%) [1]: (30.43%) | Effectively healed case, number [1]: 56 cases | Improved case (%) [1]: (13.05%) | Improved case, number [1]: 24 cases | Not healed case (%) [1]: (4.35%) | Not healed case, number [1]: 8 cases | Completely healed case (%) [2]: 52.17% | Effectively healed case (%) [2]: 30.43% | Improved case (%) [2]: 13.05% | Not healed case (%) [2]: 4.35% | Wound healing time (X +/− S): 36.71 ± 10.60^ days | Wound healing time (X +/− S) (listed as conventional dressing): 36.71 ± 10.60 days
